# From publication PMC3118794
# Assays:
# [1] = target: actin of “ghost” muscle fibers (rabbit (endogenous in psoas muscle fibers)) (UniProt P68135); assay: reconstitution into ghost muscle fibers, washes, SDS-PAGE; 20 µM labeled Tm added to ghost fibers in RB buffer for 15 hours at 4°C, then 20 µM troponin complex and 20 µM S1; unbound proteins removed by repeated washes with rigor buffer; 12% SDS gel quantified; settings: scale: actin per S1
# [2] = target: “ghost” fiber reconstituted with labeled Tm (rabbit (endogenous in psoas muscle fibers) | not stated) (UniProt P68135); assay: as above; settings: scale: actin per TnI
# skeletal troponin complex, sequence (P02586 whole entry): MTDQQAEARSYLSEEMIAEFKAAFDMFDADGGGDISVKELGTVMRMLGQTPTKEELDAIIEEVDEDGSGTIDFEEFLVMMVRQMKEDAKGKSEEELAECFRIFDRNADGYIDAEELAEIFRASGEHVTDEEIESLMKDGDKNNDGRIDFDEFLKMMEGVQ
# skeletal troponin complex, sequence (P02643 whole entry): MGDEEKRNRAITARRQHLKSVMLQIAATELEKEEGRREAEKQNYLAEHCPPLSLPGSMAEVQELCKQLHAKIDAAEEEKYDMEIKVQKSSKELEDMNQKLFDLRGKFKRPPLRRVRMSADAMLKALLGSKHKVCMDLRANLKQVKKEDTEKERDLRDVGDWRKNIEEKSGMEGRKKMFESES
# skeletal troponin complex, sequence (P02641 whole entry): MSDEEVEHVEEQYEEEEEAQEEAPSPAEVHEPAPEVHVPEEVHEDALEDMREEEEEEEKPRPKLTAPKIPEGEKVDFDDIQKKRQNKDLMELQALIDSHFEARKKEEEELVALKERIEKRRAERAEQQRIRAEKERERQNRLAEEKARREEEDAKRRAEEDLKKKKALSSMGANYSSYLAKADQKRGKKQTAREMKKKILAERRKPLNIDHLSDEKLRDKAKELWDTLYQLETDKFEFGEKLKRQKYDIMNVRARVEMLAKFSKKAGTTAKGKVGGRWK
# myosin subfragment-1 (domain or fragment), sequence (Q28641 whole entry, the tested form may be a part): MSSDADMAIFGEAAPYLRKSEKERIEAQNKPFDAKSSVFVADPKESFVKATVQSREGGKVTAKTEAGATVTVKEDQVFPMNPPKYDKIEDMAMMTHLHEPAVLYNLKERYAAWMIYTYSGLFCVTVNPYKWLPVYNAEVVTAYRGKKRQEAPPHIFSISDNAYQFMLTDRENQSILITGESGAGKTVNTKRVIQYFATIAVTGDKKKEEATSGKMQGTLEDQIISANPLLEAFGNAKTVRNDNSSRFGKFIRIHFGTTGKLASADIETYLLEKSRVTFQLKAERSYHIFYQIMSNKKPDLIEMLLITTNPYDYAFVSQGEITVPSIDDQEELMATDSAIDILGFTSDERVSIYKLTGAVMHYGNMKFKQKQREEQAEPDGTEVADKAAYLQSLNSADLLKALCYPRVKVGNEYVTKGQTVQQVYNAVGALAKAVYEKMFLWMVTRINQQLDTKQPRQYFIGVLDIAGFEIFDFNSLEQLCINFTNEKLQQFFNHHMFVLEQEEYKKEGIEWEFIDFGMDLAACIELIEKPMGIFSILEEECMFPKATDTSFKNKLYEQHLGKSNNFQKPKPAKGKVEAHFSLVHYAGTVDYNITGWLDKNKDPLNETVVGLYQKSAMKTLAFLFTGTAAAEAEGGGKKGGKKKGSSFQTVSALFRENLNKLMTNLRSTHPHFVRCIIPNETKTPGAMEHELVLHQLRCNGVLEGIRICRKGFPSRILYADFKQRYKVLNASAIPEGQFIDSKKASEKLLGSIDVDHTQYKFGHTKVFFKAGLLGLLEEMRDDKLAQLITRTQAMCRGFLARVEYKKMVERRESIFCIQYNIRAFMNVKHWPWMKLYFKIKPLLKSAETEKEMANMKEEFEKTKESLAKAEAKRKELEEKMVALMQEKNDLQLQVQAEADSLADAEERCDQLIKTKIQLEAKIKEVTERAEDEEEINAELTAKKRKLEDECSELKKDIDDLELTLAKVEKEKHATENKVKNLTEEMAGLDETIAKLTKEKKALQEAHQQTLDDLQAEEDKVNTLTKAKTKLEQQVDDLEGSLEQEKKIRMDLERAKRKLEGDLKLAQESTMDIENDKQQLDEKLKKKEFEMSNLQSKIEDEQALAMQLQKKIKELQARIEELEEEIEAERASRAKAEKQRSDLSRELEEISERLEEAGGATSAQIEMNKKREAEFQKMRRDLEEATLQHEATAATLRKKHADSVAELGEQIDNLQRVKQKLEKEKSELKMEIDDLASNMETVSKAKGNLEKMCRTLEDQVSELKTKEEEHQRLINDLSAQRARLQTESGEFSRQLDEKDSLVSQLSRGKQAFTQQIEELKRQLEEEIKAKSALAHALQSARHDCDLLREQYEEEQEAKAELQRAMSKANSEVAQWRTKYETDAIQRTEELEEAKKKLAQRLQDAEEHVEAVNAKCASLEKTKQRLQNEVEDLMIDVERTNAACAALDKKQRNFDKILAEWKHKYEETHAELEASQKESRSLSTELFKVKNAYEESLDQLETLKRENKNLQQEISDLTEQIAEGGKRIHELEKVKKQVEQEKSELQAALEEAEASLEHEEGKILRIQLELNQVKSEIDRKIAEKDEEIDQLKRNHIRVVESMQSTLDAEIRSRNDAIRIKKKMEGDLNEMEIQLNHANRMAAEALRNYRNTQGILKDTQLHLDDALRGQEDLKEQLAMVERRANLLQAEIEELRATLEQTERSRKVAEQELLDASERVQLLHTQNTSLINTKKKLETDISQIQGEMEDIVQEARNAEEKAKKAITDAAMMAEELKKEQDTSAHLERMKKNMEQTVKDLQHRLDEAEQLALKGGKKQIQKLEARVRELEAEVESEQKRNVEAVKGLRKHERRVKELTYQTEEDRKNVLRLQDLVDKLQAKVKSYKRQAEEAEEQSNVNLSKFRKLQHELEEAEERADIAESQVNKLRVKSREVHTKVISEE
Substance,ratio of the S1:actin intensity in reconstituted ghost fibers (SDS-PAGE) [1],ratio of TnI:actin in the reconstituted fiber (SDS-PAGE) [2]
myosin subfragment-1 (domain or fragment),1,–
skeletal troponin complex (from UniProt P02586 1-160; P02643 1-182; P02641 1-279),–,4.5
